Data as given in patent US9907791B2, “Ron inhibitors for use in preventing and treating bone loss” (UNIVERSITY OF UTAH RESEARCH FOUNDATION, priority 2014, dated 2018).

Tests used:
Type in all cases: cell-based, mice
[1] = test system: bone marrow osteoclasts; test: Osteoclast survival assay; conditions: 100 pg/mL MSP daily from day 7 for 48 hours
Description: (§1) Bone marrow precursor cells were thawed and seeded at a density of 2×10^5 cells per well in a 24-well plate containing glass coverslips in α-MEM media containing 10% FBS and antibiotics. After adhering overnight, media was removed and media containing 33 ng/mL hM-CSF and 9 ng/mL muRANKL was added. Cells were allowed to differentiate for 7 days with media changed every 3 days. Coverslips were then imaged microscopically using phase contrast to determine osteoclast number in each well. To test survival, factor-containing media was removed and α-MEM media containing 10% FBS was added as well as MSP as indicated. Cells were cultured for an additional 48 hours, fixed with 10% NBF for 10 minutes and washed with 1×PBS. For TRAP fluorescent staining, the leukocyte acid phosphatase kit (Sigma, St. Louis, Mo.) was used according to the manufacturer's instructions, with the substitution of 200 μM ELF97 (Invitrogen, Waltham, Mass.) as a phosphatase substrate. Coverslips were incubated in TRAP solution for 15 minutes at 37 degrees, washed with 1×PBS and counterstained with DAPI. The number of multinucleated TRAP+ cells (containing 4 or more nuclei) within 5 representative fields were included for quantification. Experiments were performed in triplicate.

[2] = test system: bone marrow osteoclasts; test: Osteoclast resorption assay; conditions: 100 pg/mL MSP daily day 9 to 12
Description: Bone marrow osteoclasts were generated from 6 to 8 week old WT and RonTK−/− mice. Briefly, bone marrow was isolated from hindlimb bones and plated in α-MEM media containing 10% heat-inactivated fetal bovine serum (FBS, Sigma, St. Louis, Mo.), 100 units/mL penicillin-streptomycin (Hyclone), and 33 ng/mL human macrophage colony-stimulating factor (hM-CSF) (PeproTech, Rocky Hill, N.J.) for 24 hours. Non-adherent cells were collected and frozen for later use. To assess resorption activity, bone marrow precursor cells were thawed and seeded at a density of 1×10^5 cells per well in BioCoat Osteologic slides (BD Biosciences, San Jose, Calif.) in α-MEM media containing 10% FBS and antibiotics. After adhering overnight, media was removed and media containing 33 ng/mL hM-CSF and 9 ng/mL muRANKL (R & D systems, Minneapolis, Minn.) was added. The medium was changed every 3 days depending on acidification, and the assay was terminated as indicated. Recombinant human MSP was prepared and added daily as indicated. Cells were removed with 6% bleach and slides were viewed microscopically using phase-contrast with 20× magnification. Osteolytic resorption area within 5 representative fields was determined using Image J software, experiments were performed in triplicate. Recombinant MSP was prepared as follows (to be described in detail elsewhere): Concentrated, serum-free media from an MCF7 cell line engineered to overexpress MSP was cleaved with kallikrein (Invitrogen, Waltham, Mass.; 4 ng of kallikrein/1 μg of supernatant protein at 37° C. for 2.5 hours). The reaction was diluted to 20 mL with 10 mM sodium phosphate, pH 7.4 and loaded onto a 5 mL HiTrap heparin column (Millipore, Billerica, Mass.) equilibrated with 20 mL of 10 mM sodium phosphate, pH 7.4, at a rate of 1 mL/min. The column was washed with 10 mL of 10 mM sodium phosphate, pH 7.4, at a rate of 1 mL/min. […]

[3] = test system: WT bone marrow precursor cells; test: Osteoclast differentiation (TRAP+ osteoclasts); conditions: 100 pg/mL MSP in presence of M-CSF and RANKL
Description: as §1, with “Coverslips were incubated in TRAP solution for 15 minutes at 37 degrees, washed with 1×PBS and counterstained with DAPI.” left out, “Experiments were performed in triplicate.” left out
M-CSF and RANKL were present continuously beginning on day 1 until experimental analysis. […] TRAP+ cells were identified by fluorescent TRAP stain and cells with 4 or more nuclei were counted (***p<0.0001). […]

[4] = test system: c-Src; test: Western blot of osteoclast lysates, phospho-Src
Description: Cells were serum starved (0.5% FBS) for 3 hours prior to lysate collection. Inhibitors were added 1 hour prior to lysis and MSP was added 15 min prior to lysis when indicated. Cells were washed with 1×PBS and harvested in lysis buffer (25 mM Tris-HCl, pH 7.5, 0.42 M NaCl, 1.5 mM MgCl2, 0.5 mM EDTA, 1 mM DTT, 25% sucrose, and 0.1% Triton X-100) plus 100× protease arrest (Bioscience, Bozeman, Mont.) and 100× orthovanadate. Primary antibodies used for immunoblotting include: anti-MSP (Santa Cruz, sc-6090, Dallas, Tex.) at a 1:250 dilution, anti-pan Akt (Cell Signaling, #4691S, Beverly, Mass.) at a 1:1000 dilution, anti-pan Erk (Cell Signaling, #4695, Beverly, Mass.) at a 1:1000 dilution, anti-phospho Akt (Cell Signaling, #9271 L, Beverly, Mass.) at a 1:500 dilution, anti-phospho Erk (Cell Signaling, #4370S, Beverly, Mass.) at a 1:500 dilution, anti-Src (Cell Signaling, #2110, Beverly, Mass.) at a 1:500 dilution, and anti-phospho Src (Y416) (Cell Signaling, #2113, Beverly, Mass.) at a 1:500 dilution. The secondary antibodies used were HRP-conjugated anti-goat IgG (Santa Cruz, Dallas, Tex.) and anti-rabbit IgG (Santa Cruz, Dallas, Tex.). Chemiluminescent signals were detected using Immun-Star HRP (BioRad, Hercules, Calif.).

B1: MSP: recombinant human macrophage-stimulating protein, the RON ligand (protein)
chain: QRSPLNDFQVLRGTELQHLLHAVVPGPWQEDVADAEECAGRCGPLMDCRAFHYNVSSHGCQLLPWTQHSPHTRLRRSGRCDLFQKKDYVRTCIMNNGVGYRGTMATTVGGLPCQAWSHKFPNDHKYTPTLRNGLEENFCRNPDGDPGGPWCYTTDPAVRFQSCGIKSCREAACVWCNGEEYRGAVDRTESGRECQRWDLQHPHQHPFEPGKFLDQGLDDNYCRNPDGSERPWCYTTDPQIEREFCDLPRCGSEAQPRQEATTVSCFRGKGEGYRGTANTTTAGVPCQRWDAQIPHQHRFTPEKYACKDLRENFCRNPDGSEAPWCFTLRPGMRAAFCYQIRRCTDDVRPQDCYHGAGEQYRGTVSKTRKGVQCQRWSAETPHKPQFTFTSEPHAQLEENFCRNPDGDSHGPWCYTMDPRTPFDYCALRRCADDQPPSILDPPDQVQFEKCGKRVDRLDQRRSKLRVVGGHPGNSPWTVSLRNRQGQHFCGGSLVKEQWILTARQCFSSCHMPLTGYEVWLGTLFQNPQHGEPSLQRVPVAKMVCGPSGSQLVLLKLERSVTLNQRVALICLPPEWYVVPPGTKCEIAGWGETKGTGNDTVLNVALLNVISNQECNIKHRGRVRESEMCTEGLLAPVGACEGDYGGPLACFTHNCWVLEGIIIPNRVCARSRWPAVFTRVSVFVDWIHKVMRLG
modifications: left off: small tags and cut ends
notes: recombinant human macrophage-stimulating protein, the RON ligand
- number of surviving osteoclasts without RANKL and M-CSF [1]: significantly augmented
- resorptive capacity of RonTK−/− osteoclasts [2]: no effect
- resorptive capacity of WT osteoclasts [2]: significant increase
- osteoclast differentiation [3]: did not increase osteoclast differentiation
- phosphorylated c-Src in WT osteoclasts [4]: increased Src phosphorylation
